Experimental data from paper PMC4310589.

Molecular target: purified recombinant full-length PNKP (human) (UniProt Q96T60)

ATXN3-Q72 (the pathological form with 72 polyQ repeats) (from UniProt P54252 1-361) (natural protein)
3'-phosphatase activity of PNKP (50 fmol) in vitro with 50-200 fmol ATXN3-Q72: decrease: 3.5 fold

ATXN3-Q29 (WT with 29 polyQ repeats) (from UniProt P54252 1-361) (natural protein)
3'-phosphatase activity of PNKP (50 fmol) in vitro with 25-400 fmol ATXN3-Q29: stimulation: 4 fold
